Patent US20210300999A1

B1: COV2-2165 (antibody, V domains shown)
VH: EVQLVESGGGLVQPGGSLRLSCAASGLTVRSNYMTWVRQTPGKGLEWVSVIYSGGSTFYADSVKGRFTISRDNSKNTVYLQMNSLRAEDTAVYYCARDLVTYGLDVWGQGTTVTVSS
VL: DIQLTQSPSFLSASVGDRVTITCRASQGISNYLAWYQQKPGTAPNLLIYAASTLQSGVPSRFSGSGSGTEFTLTISSLQPEDFATYYCQLLNSHPLTFGQGTRLEIK
B2: COV2-2952 (antibody, V domains shown)
VH: B1 VH
VL: B1 VL
B3: COV2-2391 (antibody, V domains shown)
VH: QVQLVQSGAEVKKPGASVKVSCKASGYTFGSFDINWVRQATGQGLEWMGRMNSNSGNTAYAQKFQGRVTMTRDTSTNTAYMELSSLRSEDTAMYYCARMRSGWPTHGRPDDFWGRGTLVTVSS
VL: QSVLTQAPSASGTPGQRVTISCSGSNSNIGSYTINWYQQLPGTAPKLLIYGNDQRTSGVPDRFSGSKFGTSASLAISGLQSEDENNYYCAVWDDSLNGLVFGGGTKLTVL
B4: COV2-2096 (antibody, V domains shown)
VH: B3 VH
VL: B3 VL

Experiments:
Settings in all cases: remark: other sources report otherwise
[1] = molecular target: SARS-CoV-2 Spike trimer (Table A) (SARS-CoV-2), P0DTC2; assay: ELISA, purified IgG
[2] = molecular target: T1, SARS-CoV-2 prefusion-stabilized trimeric spike ectodomain (S2Pecto) (SARS-CoV-2), P0DTC2; assay: ELISA on coated antigen
[3] = molecular target: T1, SARS-CoV-2 prefusion-stabilized …; assay: hACE2 blocking ELISA on coated S2Pecto; competitor hACE2

| Binder | ELISA OD 450 nm [1] | EC50 [2] | IC50 [3] |
| --- | --- | --- | --- |
| B1 | 4.2 OD 450 nm | 1.4 ng/mL | 0.062 µg/mL |
| B2 | 3.54 OD 450 nm | – | – |
| B3 | 3.57 OD 450 nm | – | – |
| B4 | 4.3 OD 450 nm | 1 ng/mL | 0.067 µg/mL |
